The source of these data is patent US9580733B2, “Methods of producing 6-carbon chemicals via methyl-ester shielded carbon chain elongation” (INVISTA North America S.á r.l., priority 2012, dated 2017).

The labels stand for the following.
B1: SEQ ID NO 2: Escherichia coli thioesterase encoded by YciA (GenBank Accession No. AAB60068.1), N-terminal His-tagged (protein, listed as Escherichia coli)
chain: MSTTHNVPQGDLVLRTLAMPADTNANGDIFGGWLMSQMDIGGAILAKEIAHGRVVTVRVEGMTFLRPVAVGDVVCCYARCVQKGTTSVSINIEVWVKKVASEPIGQRYKATEALFKYVAVDPEGKPRALPVE
modifications: N-terminal His tag
B2: SEQ ID NO 1: Escherichia coli thioesterase encoded by tesB (GenBank Accession No. AAA24665.1), N-terminal His-tagged (protein, listed as Escherichia coli)
chain: MSQALKNLLTLLNLEKIEEGLFRGQSEDLGLRQVFGGQVVGQALYAAKETVPEERLVHSFHSYFLRPGDSKKPIIYDVETLRDGNSFSARRVAAIQNGKPIFYMTASFQAPEAGFEHQKTMPSAPAPDGLPSETQIAQSLAHLLPPVLKDKFICDRPLEVRPVEFHNPLKGHVAEPHRQVWIRANGSVPDDLRVHQYLLGYASDLNFLPVALQPHGIGFLEPGIQIATIDHSMWFHRPFNLNEWLLYSVESTSASSARGFVRGEFYTQDGVLVASTVQEGVMRNHN
modifications: N-terminal His tag
B3: SEQ ID NO 12: Escherichia coli ω-transaminase, gene product of YgjG (Genbank Accession No. AAA57874.1) (protein, listed as Escherichia coli)
chain: MNRLPSSASALACSAHALNLIEKRTLDHEEMKALNREVIEYFKEHVNPGFLEYRKSVTAGGDYGAVEWQAGSLNTLVDTQGQEFIDCLGGFGIFNVGHRNPVVVSAVQNQLAKQPLHSQELLDPLRAMLAKTLAALTPGKLKYSFFCNSGTESVEAALKLAKAYQSPRGKFTFIATSGAFHGKSLGALSATAKSTFRKPFMPLLPGFRHVPFGNIEAMRTALNECKKTGDDVAAVILEPIQGEGGVILPPPGYLTAVRKLCDEFGALMILDEVQTGMGRTGKMFACEHENVQPDILCLAKALGGGVMPIGATIATEEVFSVLFDNPFLHTTTFGGNPLACAAALATINVLLEQNLPAQAEQKGDMLLDGFRQLAREYPDLVQEARGKGMLMAIEFVDNEIGYNFASEMFRQRVLVAGTLNNAKTIRIEPPLTLTIEQCELVIKAARKALAAMRVSVEEA
B4: SEQ ID NO 10: Pseudomonas syringae ω-transaminase (Genbank Accession No. AAY39893.1) (protein, listed as Pseudomonas syringae)
chain: MSANNPQTLEWQALSSEHHLAPFSDYKQLKEKGPRIITRAEGVYLWDSEGNKILDGMSGLWCVAIGYGREELADAASKQMRELPYYNLFFQTAHPPVLELAKAISDIAPEGMNHVFFTGSGSEGNDTMLRMVRHYWALKGQPNKKTIISRVNGYHGSTVAGASLGGMTYMHEQGDLPIPGVVHIPQPYWFGEGGDMTPDEFGIWAAEQLEKKILELGVENVGAFIAEPIQGAGGVIVPPDSYWPKIKEILSRYDILFAADEVICGFGRTSEWFGSDFYGLRPDMMTIAKGLTSGYVPMGGLIVRDEIVAVLNEGGDFNHGFTYSGHPVAAAVALENIRILREEKIVERVRSETAPYLQKRLRELSDHPLVGEVRGVGLLGAIELVKDKTTRERYTDKGAGMICRTFCFDNGLIMRAVGDTMIIAPPLVISFAQIDELVEKARTCLDLTLAVLQG
B5: SEQ ID NO 9: Pseudomonas aeruginosa ω-transaminase (Genbank Accession No. AAG08191.1) (protein, listed as Pseudomonas aeruginosa)
chain: MNARLHATSPLGDADLVRADQAHYMHGYHVFDDHRVNGSLNIAAGDGAYIYDTAGNRYLDAVGGMWCTNIGLGREEMARTVAEQTRLLAYSNPFCDMANPRAIELCRKLAELAPGDLDHVFLTTGGSTAVDTAIRLMHYYQNCRGKRAKKHVITRINAYHGSTFLGMSLGGKSADRPAEFDFLDERIHHLACPYYYRAPEGLGEAEFLDGLVDEFERKILELGADRVGAFISEPVFGSGGVIVPPAGYHRRMWELCQRYDVLYISDEVVTSFGRLGHFFASQAVFGVQPDIILTAKGLTSGYQPLGACIFSRRIWEVIAEPDKGRCFSHGFTYSGHPVACAAALKNIEIIEREGLLAHADEVGRYFEERLQSLRDLPIVGDVRGMRFMACVEFVADKASKALFPESLNIGEWVHLRAQKRGLLVRPIVHLNVMSPPLILTREQVDTVVRVLRESIEETVEDLVRAGHR
B6: SEQ ID NO 8: Chromobacterium violaceum ω-transaminase (Genbank Accession No. AAQ59697.1) (protein, listed as Chromobacterium violaceum)
chain: MQKQRTTSQWRELDAAHHLHPFTDTASLNQAGARVMTRGEGVYLWDSEGNKIIDGMAGLWCVNVGYGRKDFAEAARRQMEELPFYNTFFKTTHPAVVELSSLLAEVTPAGFDRVFYTNSGSESVDTMIRMVRRYWDVQGKPEKKTLIGRWNGYHGSTIGGASLGGMKYMHEQGDLPIPGMAHIEQPWWYKHGKDMTPDEFGVVAARWLEEKILEIGADKVAAFVGEPIQGAGGVIVPPATYWPEIERICRKYDVLLVADEVICGFGRTGEWFGHQHFGFQPDLFTAAKGLSSGYLPIGAVFVGKRVAEGLIAGGDFNHGFTYSGHPVCAAVAHANVAALRDEGIVQRVKDDIGPYMQKRWRETFSRFEHVDDVRGVGMVQAFTLVKNKAKRELFPDFGEIGTLCRDIFFRNNLIMRACGDHIVSAPPLVMTRAEVDEMLAVAERCLEEFEQTLKARGLA

The nature of one data set: Thioesterase enzyme activity assay, adipyl-CoA to adipate. In kind it is biochemical. The settings on record: 667 μM adipyl-CoA, pH 7.4, 37° C., 20 min, vs empty vector control, FIG. 8. The procedure:
A sequence encoding an N-terminal His-tag was added to the genes from Escherichia coli encoding the thioesterases of SEQ ID NOs: 1 and 2 respectively (see FIG. 7A), such that an N-terminal HIS tagged thioesterase could be produced. Each of the resulting modified genes was cloned into a pET15b expression vector under control of the T7 promoter. Each expression vector was transformed into a BL21[DE3] E. coli host. The resulting recombinant E. coli strains were cultivated at 37° C. in a 500 mL shake flask culture containing 50 mL Luria Broth (LB) media and antibiotic selection pressure, with shaking at 230 rpm. The culture was induced overnight at 17° C. using 0.5 mM IPTG.
The pellet from the induced shake flask culture was harvested via centrifugation. The pellet was resuspended and lysed in Y-per™ solution (ThermoScientific, Rockford, Ill.). The cell debris was separated from the supernatant via centrifugation. […]
The enzyme activity assay was performed in triplicate in a buffer composed of 50 mM phosphate buffer (pH=7.4), 0.1 mM Ellman's reagent, and 667 μM of adipyl-CoA (as substrate). […] The release of Coenzyme A was monitored by absorbance at 412 nm. The absorbance associated with the substrate only control, which contained boiled enzyme, was subtracted from the active enzyme assay absorbance and compared to the empty vector control.
Consider B1, for which the “thioesterase activity for converting adipyl-CoA to adipate (release of Coenzyme A, absorbance at 412 nm)” value is reported as “accepted adipyl-CoA as substrate”.
For the molecule B2, the “thioesterase activity for converting adipyl-CoA to adipate (release of Coenzyme A, absorbance at 412 nm)” value is given as “accepted adipyl-CoA as substrate”.

The nature of a further data set: ω-transaminase activity assay, reverse direction, 6-aminohexanoate to adipate semialdehyde. The settings on record: cell free extract, 10 mM 6-aminohexanoate, 10 mM pyruvate, 25° C., 24 h, vs empty vector control, FIG. 15. The format is biochemical. The procedure: (§1) A nucleotide sequence encoding a His-tag was added to the genes from Chromobacterium violaceum, Pseudomonas aeruginosa, Pseudomonas syringae, Rhodobacter sphaeroides, and Vibrio fluvialis encoding the ω-transaminases of SEQ ID NOs: 7, 8, 9, 10 and 12, respectively (see FIGS. 7E and 7F) such that N-terminal HIS tagged ω-transaminases could be produced. Each of the resulting modified genes was cloned into a pET21a expression vector under control of the T7 promoter and each expression vector was transformed into a BL21[DE3] E. coli host. The resulting recombinant E. coli strains were cultivated at 37° C. in a 250 mL shake flask culture containing 50 mL LB media and antibiotic selection pressure, with shaking at 230 rpm. Each culture was induced overnight at 16° C. using 1 mM IPTG.
(§2) The pellet from each induced shake flask culture was harvested via centrifugation. Each pellet was resuspended and lysed via sonication. The cell debris was separated from the supernatant via centrifugation and the cell free extract was used immediately in enzyme activity assays.
Enzyme activity assays in the reverse direction (i.e., 6-aminohexanoate to adipate semialdehyde) were performed in a buffer composed of a final concentration of 50 mM HEPES buffer (pH=7.5), 10 mM 6-aminohexanoate, 10 mM pyruvate and 100 μM pyridoxyl 5′ phosphate. Each enzyme activity assay reaction was initiated by adding cell free extract of the ω-transaminase gene product or the empty vector control to the assay buffer containing the 6-aminohexanoate and incubated at 25° C. for 24 h, with shaking at 250 rpm. The formation of L-alanine from pyruvate was quantified via RP-HPLC.
Regarding B3, the “ω-transaminase activity for converting 6-aminohexanoate to adipate semialdehyde (formation of L-alanine from pyruvate, RP-HPLC)” value is listed as “accepted 6-aminohexanote as substrate”.
As for B4, the “ω-transaminase activity for converting 6-aminohexanoate to adipate semialdehyde (formation of L-alanine from pyruvate, RP-HPLC)” value is reported as “accepted 6-aminohexanote as substrate”.
Regarding B5, the “ω-transaminase activity for converting 6-aminohexanoate to adipate semialdehyde (formation of L-alanine from pyruvate, RP-HPLC)” value was “accepted 6-aminohexanote as substrate”.

Another data set is described as follows: ω-transaminase activity assay, forward direction, adipate semialdehyde to 6-aminohexanoate. The format is biochemical. The settings on record: cell free extract, 10 mM adipate semialdehyde, 10 mM L-alanine, 25° C., 4 h, vs empty vector control, FIG. 16. As for the experimental part:
as §1, §2
Enzyme activity in the forward direction (i.e., adipate semialdehyde to 6-aminohexanoate) was confirmed for the transaminases of SEQ ID NO 7, SEQ ID NO 8, SEQ ID NO 9, SEQ ID NO 10 and SEQ ID NO 12. Enzyme activity assays were performed in a buffer composed of a final concentration of 50 mM HEPES buffer (pH=7.5), 10 mM adipate semialdehyde, 10 mM L-alanine and 100 μM pyridoxyl 5′ phosphate. Each enzyme activity assay reaction was initiated by adding a cell free extract of the ω-transaminase gene product or the empty vector control to the assay buffer containing the adipate semialdehyde and incubated at 25° C. for 4 h, with shaking at 250 rpm. The formation of pyruvate was quantified via RP-HPLC.
On to B6, for which the “ω-transaminase activity for converting adipate semialdehyde to 6-aminohexanoate (formation of pyruvate, RP-HPLC)” value was “accepted adipate semialdehyde as substrate”.
For B3, the “ω-transaminase activity for converting adipate semialdehyde to 6-aminohexanoate (formation of pyruvate, RP-HPLC)” value is “accepted adipate semialdehyde as substrate”.
As to B4, the “ω-transaminase activity for converting adipate semialdehyde to 6-aminohexanoate (formation of pyruvate, RP-HPLC)” value is “accepted adipate semialdehyde as substrate”.
As to B5, the “ω-transaminase activity for converting adipate semialdehyde to 6-aminohexanoate (formation of pyruvate, RP-HPLC)” value was “accepted adipate semialdehyde as substrate”.
